Measurements reported in US6379950 (THOMAS JEFFERSON UNIVERSITY, dated 2002).
fmk = not defined here

T1: C-terminus of lamin A, P02545
T1 chain: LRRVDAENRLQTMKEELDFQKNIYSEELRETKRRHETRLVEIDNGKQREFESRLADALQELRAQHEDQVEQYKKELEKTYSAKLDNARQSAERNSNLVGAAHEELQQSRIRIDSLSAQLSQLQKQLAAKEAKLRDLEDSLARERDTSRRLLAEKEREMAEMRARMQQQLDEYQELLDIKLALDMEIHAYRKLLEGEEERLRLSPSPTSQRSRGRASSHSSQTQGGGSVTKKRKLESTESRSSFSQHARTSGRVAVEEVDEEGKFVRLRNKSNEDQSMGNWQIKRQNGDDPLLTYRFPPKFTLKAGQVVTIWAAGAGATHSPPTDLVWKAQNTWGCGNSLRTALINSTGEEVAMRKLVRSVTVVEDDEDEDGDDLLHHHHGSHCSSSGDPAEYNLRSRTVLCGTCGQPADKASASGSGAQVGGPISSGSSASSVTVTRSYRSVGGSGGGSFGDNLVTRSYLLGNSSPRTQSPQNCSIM

T2: rev-caspase-3 (human, UniProt P42574 1-175, limits assumed)
T2 sequence: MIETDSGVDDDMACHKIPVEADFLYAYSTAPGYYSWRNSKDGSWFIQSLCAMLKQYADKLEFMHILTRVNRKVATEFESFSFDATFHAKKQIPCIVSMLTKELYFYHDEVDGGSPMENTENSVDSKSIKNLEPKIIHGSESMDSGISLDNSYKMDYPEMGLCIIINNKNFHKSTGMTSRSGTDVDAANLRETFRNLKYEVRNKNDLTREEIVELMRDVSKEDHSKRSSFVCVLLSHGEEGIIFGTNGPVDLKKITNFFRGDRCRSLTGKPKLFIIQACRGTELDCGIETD


Experiments:
[1] = target: T1, C-terminus of lamin A, P02545
[2] = target: poly(ADP) ribose polymerase (PARP), P09874
Chain of poly(ADP) ribose polymerase (PARP), P09874 (P09874 whole entry, looked up): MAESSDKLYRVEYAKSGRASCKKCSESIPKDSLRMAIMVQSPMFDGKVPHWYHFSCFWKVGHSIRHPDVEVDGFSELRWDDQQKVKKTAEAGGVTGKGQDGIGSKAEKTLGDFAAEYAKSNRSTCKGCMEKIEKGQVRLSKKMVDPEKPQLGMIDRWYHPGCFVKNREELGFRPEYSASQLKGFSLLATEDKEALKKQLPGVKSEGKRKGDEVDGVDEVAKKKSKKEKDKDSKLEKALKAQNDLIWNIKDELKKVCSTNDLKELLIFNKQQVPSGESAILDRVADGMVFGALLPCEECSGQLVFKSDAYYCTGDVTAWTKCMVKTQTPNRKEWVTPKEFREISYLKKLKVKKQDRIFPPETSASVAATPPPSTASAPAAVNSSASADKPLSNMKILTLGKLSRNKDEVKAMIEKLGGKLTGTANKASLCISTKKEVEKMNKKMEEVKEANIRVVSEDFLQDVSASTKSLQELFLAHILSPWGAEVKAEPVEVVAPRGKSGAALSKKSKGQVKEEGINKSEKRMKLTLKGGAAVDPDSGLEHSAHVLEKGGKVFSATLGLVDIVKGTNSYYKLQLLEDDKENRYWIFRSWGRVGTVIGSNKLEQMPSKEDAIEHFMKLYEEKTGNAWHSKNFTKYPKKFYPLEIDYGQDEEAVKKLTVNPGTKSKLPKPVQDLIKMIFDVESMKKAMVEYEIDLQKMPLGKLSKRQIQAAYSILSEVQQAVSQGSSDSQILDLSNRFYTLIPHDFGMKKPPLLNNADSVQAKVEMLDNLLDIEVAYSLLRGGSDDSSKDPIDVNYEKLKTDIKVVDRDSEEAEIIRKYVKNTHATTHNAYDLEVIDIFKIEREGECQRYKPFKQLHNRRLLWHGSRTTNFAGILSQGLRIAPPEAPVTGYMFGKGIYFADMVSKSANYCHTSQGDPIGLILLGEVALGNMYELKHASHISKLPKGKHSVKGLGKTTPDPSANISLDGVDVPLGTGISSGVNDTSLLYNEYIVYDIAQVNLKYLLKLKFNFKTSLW

rev-caspase-3 = target: T2, rev-caspase-3; test: cell-based or functional assay

| amount of inhibitor required for complete inhibition, relative to DEVD-CHO (rev-caspase-3) [fold] | Binder | substrate cleavage (bacterial extract incubated with 35S-labelled lamin A C-terminus, autoradiography) [1] | substrate cleavage (bacterial extract incubated with purified PARP, Western blot) [2] |
| --- | --- | --- | --- |
|  | caspase-3 (wild type) (protein) MENTENSVDSKSIKNLEPKIIHGSESMDSGISLDNSYKMDYPEMGLCIIINNKNFHKSTGMTSRSGTDVDAANLRETFRNLKYEVRNKNDLTREEIVELMRDVSKEDHSKRSSFVCVLLSHGEEGIIFGTNGPVDLKKITNFFRGDRCRSLTGKPKLFIIQACRGTELDCGIETDSGVDDDMACHKIPVDADFLYAYSTAPGYYSWRNSKDGSWFIQSLCAMLKQYADKLEFMHILTRVNRKVATEFESFSFDATFHAKKQIPCIVSMLTKELYFYH | both caspase-6 variants, but not caspase-3 variants efficiently cleaved lamin | Both caspase-3 variants (rev and WT), but not caspase-6 variants efficiently cleaved PARP |
| ~10 | {code z}-Val-Ala-Asp-fmk (reading uncertain; also: printed as z-VAD-fmk) [z-VAD-fmk] |  |  |
|  | rev-caspase-6 (protein) MVEIDAASVYTLPAGADFLMCYSVAEGYYSHRETVNGSWYIQDLCEMLGKYGSSLEFTELLTLVNRKVSQRRVDFCKDPSAIGKKQVPCFASMLTKKLHFFPKSNLEHHHHHHVEIDGGSPMSSASGLRRGHPAGGEENMTETDAFYKREMFDPAEKYKMDHRRRGIALIFNHERFFWHLTLPERRGTCADRDNLTRRFSDLGFEVKCFNDLKAEELLLKIHEVSTVSHADADCFVCVFLSHGEGNHIYAYDAKIEIQTLTGLFKGDKCHSLVGKPKIFIIQACRGNQHDVPVIPLDVVD | both caspase-6 variants, but not caspase-3 variants efficiently cleaved lamin | Both caspase-3 variants (rev and WT), but not caspase-6 variants efficiently cleaved PARP |
|  | caspase-6 (wild type) (protein) MSSASGLRRGHPAGGEENMTETDAFYKREMFDPAEKYKMDHRRRGIALIFNHERFFWHLTLPERRGTCADRDNLTRRFSDLGFEVKCFNDLKAEELLLKIHEVSTVSHADADCFVCVFLSHGEGNHIYAYDAKIEIQTLTGLFKGDKCHSLVGKPKIFIIQACRGNQHDVPVIPLDVVDNQTEKLDTNITEVDAASVYTLPAGADFLMCYSVAEGYYSHRETVNGSWYIQDLCEMLGKYGSSLEFTELLTLVNRKVSQRRVDFCKDPSAIGKKQVPCFASMLTKKLHFFPKSN | both caspase-6 variants, but not caspase-3 variants efficiently cleaved lamin | Both caspase-3 variants (rev and WT), but not caspase-6 variants efficiently cleaved PARP |
|  | rev-caspase-3 (protein) MIETDSGVDDDMACHKIPVEADFLYAYSTAPGYYSWRNSKDGSWFIQSLCAMLKQYADKLEFMHILTRVNRKVATEFESFSFDATFHAKKQIPCIVSMLTKELYFYHDEVDGGSPMENTENSVDSKSIKNLEPKIIHGSESMDSGISLDNSYKMDYPEMGLCIIINNKNFHKSTGMTSRSGTDVDAANLRETFRNLKYEVRNKNDLTREEIVELMRDVSKEDHSKRSSFVCVLLSHGEEGIIFGTNGPVDLKKITNFFRGDRCRSLTGKPKLFIIQACRGTELDCGIETD | both caspase-6 variants, but not caspase-3 variants efficiently cleaved lamin | Both caspase-3 variants (rev and WT), but not caspase-6 variants efficiently cleaved PARP |
